Five molecules from patent US20250288652A1, “BACTERIOPHAGE LYSINE, CHIMERA THEREOF AND APPLICATION THEREOF” (priority 2021, published 2025) can be followed below.

The test system of this test is Propionibacterium acnes. Nature of the test: MIC of selected lysin after single-step purification, Example 8. It is filed as cell-based. The note with it: single-step purified lysin. As for the experimental part:
Express PACL 10, 390, 391, 392, 403 and 404 according to the method of Examples 1-4, and perform the following single-step purification: put Escherichia coli BL21 (DE3) containing each recombinant expression plasmid in the self-induction medium incubate at 37° C., 300 rpm for 3 hours, then at 18° C., 300 rpm for 16-18 hours. Cells were collected by centrifugation and lysed by homogenizatoin under high pressure. Clarified lysate from 1 L of E. coli culture medium expressing the protein of interest was loaded onto a 26 mm/200 mm column containing 70 mL of purification resin. The lysin was purified according to the conditions in Table 8-1, and the purity determination of the lyase after single-step purification is shown in FIG. 5. These lysin are used to determine the minimal inhibitory concentration (MIC).
The minimal inhibitory concentration (MIC) determination method is as follows. Propionibacterium acnes is streaked on Fortified Clostridium Agar (Fortified Clostridium Medium RCM with 1.5% agar, RCM was prepared according to the revised recipe, per liter—10 g acid hydrolyzed casein, 10 g beef extract, 3 g yeast extract, 5 g D—glucose, 5 g sodium chloride, 3 g sodium acetate, 0.5 g L-cysteine hydrochloride). Plates were incubated anaerobically at 37° C. for 72 hours. The inoculum for MIC determination was first prepared by resuspending single clones from RCA in 0.9% saline to an OD600 of 0.05, corresponding to 10^7 colony-forming units per milliliter (cfu/mL). The suspension was diluted 20-fold in RCM to an inoculum of 5*10^5 cfu/mL. Two-fold serial dilutions of each lyase were prepared in 0.9% saline and added not to exceed one-tenth of the total culture volume. Cultures were grown anaerobically at 37° C. for 48-72 hours. The MIC is the lowest concentration of lyase at which no growth of P. acnes can be observed with the naked eye.

In general, MIC refers to the least concentration at which growth counts as inhibited. As to `CN(C)[C@@H]1C(O)=C(C(N)=O)C(=O)[C@@]2(O)C(O)=C3C(=O)c4c(O)cccc4[C@@](C)(O)[C@H]3C[C@@H]12` [Tetracycline, reference compound], the MIC (Cutibacterium acnes, clade IA2, strain 33, read-out: MIC of selected lyases relative to Propionibacterium acnes) came to 8 µg/mL. The “MIC of selected lyases relative to Propionibacterium acnes” value runs as follows: (clade IA1, strain 1) 8 µg/mL; (clade IA1, strain 5) 8 µg/mL; (clade IA1, strain 7) 8 µg/mL; (clade IA2, strain 10) 8 µg/mL; (clade IA2, strain 17) 8 µg/mL; (clade II, strain 34) 8 µg/mL.

B1: PACL391: chimeric lysin, amino acid sequence SEQ ID NO: 259 (protein)
chain: MTFIQAAHHSSGSNLPPTRVVIHATCPELGFPRASAKGRAVSTARYFQSAISGGSAHYVVDVGETVQCLAEDVIAWHAPPNSRSLGIEICADGGSATSFKNPNVRYSRAQWLSPQVWPAVLRAAALTRQMCQKYGIPVTKLSASDLKAGKKGICGHVDVSNAWHQSDHDDPGPDFPWAEFMAAVKGGATNPGGEVRTPGQQDTKPSVPTPSLTEIGDQDMNGCYYNLNSKTRTYLIFDSRSGFYHEFSQGNGNGPMSPDYVNPIAKGWDTGSWPAISPGHAKVLKAALDKVRKGI
modifications: PACL391
As to B1, the “MIC of selected lyases relative to Propionibacterium acnes” value is, setting by setting: (clade IA1, strain 1) 8 µg/mL; (clade IA1, strain 5) 16 µg/mL; (clade IA1, strain 7) 8 µg/mL; (clade IA2, strain 10) 32 µg/mL; (clade IA2, strain 17) 32 µg/mL; (clade IA2, strain 33) 16 µg/mL. In addition, the “MIC of selected lyases relative to Propionibacterium acnes” value (clade II, strain 34) worked out at 8 µg/mL.

B2: PACL390: chimeric lysin, amino acid sequence SEQ ID NO: 258 (protein)
chain: MTFIQAAHHSSGSNLPPTRVVIHATCPEMGFPKASAKGRAVSTARYFQSASSGGSAHYVVDIGETVQCLGENVIAWHAPPNAHSLGIEICADGGSATSFSNPKVRYTRAQWLSPQVWPAVLRAAALTRKMCSKYGIPVVKLSASDLKAGKKGICGHVDVSNAFHQSDHDDPGPDFPWAEFMAAVKGGPGQQDTKPSVPTPSLTEIGDQDMNGCYYNLNSKTRTYLIFDSRSGFYHEFSQGNGNGPMSPDYVNPIAKGWDTGSWPAISPGHAKVLKAALDKVRKGI
modifications: PACL390
With B2, the “MIC of selected lyases relative to Propionibacterium acnes” value (clade IA1, strain 1) came to 8 µg/mL; the “MIC of selected lyases relative to Propionibacterium acnes” value (clade IA1, strain 5) is 8 µg/mL; the “MIC of selected lyases relative to Propionibacterium acnes” value (clade IA1, strain 7) worked out at 8 µg/mL; the “MIC of selected lyases relative to Propionibacterium acnes” value (clade IA2, strain 10) came out at 8 µg/mL; the “MIC of selected lyases relative to Propionibacterium acnes” value (clade IA2, strain 17) stood at 8 µg/mL; the “MIC of selected lyases relative to Propionibacterium acnes” value (clade IA2, strain 33) worked out at 8 µg/mL. In addition, the “MIC of selected lyases relative to Propionibacterium acnes” value (clade II, strain 34) was 8 µg/mL.

B3: PACL404: chimeric lysin, amino acid sequence SEQ ID NO: 272 (protein)
chain: MTFIQAAHHSSGSNLPPTRVVIHATCPEMGFPKASAKGRAVSTARYFQSASSGGSAHYVVDIGETVQCLGENVIAWHAPPNAHSLGIEICADGGSATSFSNPKVRYTRAQWLSPQVWPAVLRAAALTRKMCSKYGIPVVKLSASDLKAGKKGICGHVDVSNAFHQSDHDDPGPDFPWAEFMAAVKGGTTTQEDEDEMKEAGGPGQQDTKPSVPTPSLTEIGDQDMNGCYYNLNSKTRTYLIFDSRSGFYHEFSQGNGNGPMSPDYVNPIAKGWDTGSWPAISPGHAKVLKAALDKVRKGI
modifications: PACL404
Consider B3, for which the “MIC of selected lyases relative to Propionibacterium acnes” value runs as follows: (clade IA1, strain 1) 8 µg/mL; (clade IA1, strain 5) 16 µg/mL; (clade IA1, strain 7) 16 µg/mL; (clade IA2, strain 10) 16 µg/mL; (clade IA2, strain 17) 8 µg/mL; (clade IA2, strain 33) 8 µg/mL. Moreover, the “MIC of selected lyases relative to Propionibacterium acnes” value (clade II, strain 34) is 8 µg/mL.

B4: PACL392: chimeric lysin, amino acid sequence SEQ ID NO: 260 (protein)
chain: MTFIQAAHHSSGSNLPPTRVVIHATCPELGFPRASAKGRAVSTARYFQSAISGGSAHYVVDVGETVQCLAEDVIAWHAPPNSRSLGIEICADGGSATSFKNPNVRYSRAQWLSPQVWPAVLRAAALTRQMCQKYGIPVTKLSASDLKAGKKGICGHVDVSNAWHQSDHDDPGPDFPWAEFMAAVKGGATNPGGPGQQDTKPSVPTPSLTEIGDQDMNGCYYNLNSKTRTYLIFDSRSGFYHEFSQGNGNGPMSPDYVNPIAKGWDTGSWPAISPGHAKVLKAALDKVRKGI
modifications: PACL392
For B4, the “MIC of selected lyases relative to Propionibacterium acnes” value (clade IA1, strain 1) was determined as 8 µg/mL; the “MIC of selected lyases relative to Propionibacterium acnes” value (clade IA1, strain 5) was 8 µg/mL; the “MIC of selected lyases relative to Propionibacterium acnes” value (clade IA1, strain 7) came to 8 µg/mL; the “MIC of selected lyases relative to Propionibacterium acnes” value (clade IA2, strain 10) turned out to be 16 µg/mL; the “MIC of selected lyases relative to Propionibacterium acnes” value (clade IA2, strain 17) is 16 µg/mL; the “MIC of selected lyases relative to Propionibacterium acnes” value (clade IA2, strain 33) amounted to 8 µg/mL. Besides, the “MIC of selected lyases relative to Propionibacterium acnes” value (clade II, strain 34) stood at 8 µg/mL.
